{
  "source": "patent US20230174575A1",
  "about": "(priority 2020, published 2023)",
  "key": {"SARS-CoV-2": {"system": "SARS-CoV-2", "type": "cell-based", "conditions": "concentrations ranging from 10 mg/ml to 1.25 mg/ml"}, "Vero cells": {"system": "Vero cells", "experiment": "Cell toxicity against Vero cells by MTT assay", "conditions": "MTT assay", "description": "Cell toxicity was monitored by establishing the effect of lysozyme HCl against Vero cells (epithelial cells of monkey kidneys). The cells were seeded in 96-well plates at the concentration of 1×10^4 cells/well. 24 hours after seeding, the cells were treated with serial dilutions of lysozyme HCl or chloroquine (as control), in a final volume of 200 in triplicate. After 72 hours' incubation at 37° C. with 5% CO2, cell viability was measured by MTT assay (D'Alessandro, M. et al., Differential effects on angiogenesis of two antimalarial compounds, dihydroartemisinin and artemisone: Implications for embryotoxicity, Toxicology. 241 (2007) 66-74. Doi: 10.1016/j.tox.2007.08.084).\nThe data were calculated as percentage cell viability using the formula:\n[(absorbance of sample−blank of cell-free sample)/mean absorbance of control of media]×100.\nThe cytotoxicity of ovotransferrin and chloroquine (CQ) was measured by MTT assay, similarly to the method used for lysozyme HCl."}},
  "data": [
    {"molecule": "Ovotransferrin: hen egg white protein, product code 501P2001090, produced by Bioseutica BV (protein, UniProt P02789 20-705, looked up) Ovotransferrin: APPKSVIRWCTISSPEEKKCNNLRDLTQQERISLTCVQKATYLDCIKAIANNEADAISLDGGQAFEAGLAPYKLKPIAAEVYEHTEGSTTSYYAVAVVKKGTEFTVNDLQGKTSCHTGLGRSAGWNIPIGTLLHRGAIEWEGIESGSVEQAVAKFFSASCVPGATIEQKLCRQCKGDPKTKCARNAPYSGYSGAFHCLKDGKGDVAFVKHTTVNENAPDQKDEYELLCLDGSRQPVDNYKTCNWARVAAHAVVARDDNKVEDIWSFLSKAQSDFGVDTKSDFHLFGPPGKKDPVLKDLLFKDSAIMLKRVPSLMDSQLYLGFEYYSAIQSMRKDQLTPSPRENRIQWCAVGKDEKSKCDRWSVVSNGDVECTVVDETKDCIIKIMKGEADAVALDGGLVYTAGVCGLVPVMAERYDDESQCSKTDERPASYFAVAVARKDSNVNWNNLKGKKSCHTAVGRTAGWVIPMGLIHNRTGTCNFDEYFSEGCAPGSPPNSRLCQLCQGSGGIPPEKCVASSHEKYFGYTGALRCLVEKGDVAFIQHSTVEENTGGKNKADWAKNLQMDDFELLCTDGRRANVMDYRECNLAEVPTHAVVVRPEKANKIRDLLERQEKRFGVNGSEKSKFMMFESQNKDLLFKDLTKCLFKVREGTTYKEFLGDKFYTVISSLKTCNPSDILQMCSFLEGK", "values": [
      {"measurement": "antiviral activity of ovotransferrin alone", "setting": "SARS-CoV-2", "result": "no antiviral activity was detected"},
      {"measurement": "viability compared with control cells", "setting": "Vero cells; 10 mg/ml", "result": 100, "unit": "%"},
      {"measurement": "cytotoxicity", "setting": "Vero cells; maximum concentration used (10 mg/ml)", "result": "non-toxic"}
    ]}
  ]
}
